Assay results taken from US20240010747A1, “ANTI-MRP4 (ENCODED BY ABCC4 GENE) ANTIBODIES AND USES THEREOF” (Kenjockety Biotechnology, Inc., priority 2020, published 2024).
Positions count from the first letter of the chain named.

B1: C4.957: anti-ABCC4 antibody raised in rats; VH SEQ ID NO: 8, VL SEQ ID NO: 127 (antibody, V domains shown)
VH: EVQLKESGPGLVQPSQTLSLTCTVSGFSLTNYGVSWVRQPPGKGLEWIGAIWSGGSTGYNSALKSRLSISRDTSKSQVLLKMNSLQTEDTAMYFCARSGVEGPPFDYWGQGASVTVSS
VL: AIQVTQSPTSLSASLGDRVTLTCRASQDINNKMAWYQQKPGEVPQLLIYYASTLQSGTPSRFSGSGSGTDFSFTISHLQSEDFATYYCLQGYSLYTFGAGTKLELK
B2: C4.956: anti-ABCC4 antibody raised in rats; VH SEQ ID NO: 7, VL SEQ ID NO: 127 (antibody, V domains shown)
VH: QLKESGPGLVKPSQSLSLTCSVTGYTITSGYDWTWLRKFPGNKMEWMGYISYSGFTNYNPSLRSRISITRDTSKNQFFLQLNSVTAEDTATYFCTRTRGYNPFPYWGQGTLVTVSS
VL: B1 VL
B3: C4.1143: anti-ABCC4 antibody raised in rats; VH SEQ ID NO: 31, VL SEQ ID NO: 148 (antibody, V domains shown)
VH: EVQLVESDGGLLQPGRSLKLSCAASGFTFSDFYMAWVRQAPTKGLEWIATISHDGRNTYYRDSVKGRFTISRDNAKRTLYLEMDSLRSEDTATYYCATLTTRYKGVMEAWGQGASVTVSS
VL: DVVMTQSPSHLAASPGESVSINCKASKNIYKYLAWYQQKPGKTNKLLIYSGSTLQSGTPSRFSGSGSGSDFTLTIRNLEPEDFGLYYCQHHNEYPPTFGGGTKLEIK
B4: C4.1164: anti-ABCC4 antibody raised in rats; VH SEQ ID NO: 36, VL SEQ ID NO: 153 (antibody, V domains shown)
VH: EVQLVESDGGLVQPGRSLKLSCAASGFTFSDYYMAWVRQAPTKGLYWVASISYDGSTTYYRDSVKGRFTISRDNAKSTLYLQMGSLRSEDTATYYCARLSIRYKGVMDAWGRGASVTVS
VL: DIQMTQSPSNLAASPGESVSINCKASETIYKYLAWYQQKPGRTNKLLIYSGSTLQSGTPSRFSGSGSGTDFTLTIRNLEPEDFGRYYCQHHVEYPPTFGAGTKLELK
B5: C4.1073: anti-ABCC4 antibody raised in rats; VH SEQ ID NO: 24, VL SEQ ID NO: 146 (antibody, V domains shown)
VH: EVQMKESGPGLVQPSQTLSLTCTVSGFSLTSYHVHWVRQPPGKGLEWMGVMWSDGDTSYNSALKSRLSINRDTSQSRVFLKMNSLQTEDTSTYYCARDRDVLYYDGDFSPFVMDAWGQGASVTVSS
VL: DIQMTQSPSNLAASPGESVSINCKASKSISKFLAWYQQKSGKANKLLIYSASTLQSGTPSRFSGSGSGTDFTLTIRNLEPEDFGLYYCQQHNEYPLTFGSGTKLEIK
B6: C4.1075: anti-ABCC4 antibody raised in rats; VH SEQ ID NO: 25, VL SEQ ID NO: 141 (antibody, V domains shown)
VH: EVQLKESGPGLVQPSQTLSLTCTVSGLSLISSNINWVRQPPGKGLEWIGAISSGGSAFYNSALKSRLTSSRDTSKSQVFLKMNSLQTEDTAIYFCARGGSEDPDYFDYWGQGVMVTVSS
VL: DIVMTQSPSSLAVSAGETVTINCKSSQSLLYSGNQKNYLAWYQQKPGQSPKLLIYWSSTRQSGVPDRFMGSGSGTDFTLTISSVQAEDLAIYYCQQYYDTPLTFGSGTKLEIK
B7: C4.1069: anti-ABCC4 antibody raised in rats; VH SEQ ID NO: 22, VL SEQ ID NO: 144 (antibody, V domains shown)
VH: GLVQPSQTLSLTCTVSGFSLNSNGVSWVRQPPGKGLEWIVEISSGGSAFYNSALKSRLSISRDTSKSQVFLKMNSLQTEDTAIYFCTRGGTEDPDYFDYWGQGASVTVSS
VL: B6 VL with M4L, K45T, S57A, M69I, T78I, S82T, L102V, I112L

target: T1, human ABCC4 (Homo sapiens, UniProt O15439); experiment: Flow cytometry (FACS) binding to C6 cells stably transfected to express human ABCC4 (different experiment, Table 4); conditions: C6 cells stably transfected to express human ABCC4, FACS; different experiment, Table 4
T1 construct: expressed in transfected cells
T1 sequence (O15439 1-1325): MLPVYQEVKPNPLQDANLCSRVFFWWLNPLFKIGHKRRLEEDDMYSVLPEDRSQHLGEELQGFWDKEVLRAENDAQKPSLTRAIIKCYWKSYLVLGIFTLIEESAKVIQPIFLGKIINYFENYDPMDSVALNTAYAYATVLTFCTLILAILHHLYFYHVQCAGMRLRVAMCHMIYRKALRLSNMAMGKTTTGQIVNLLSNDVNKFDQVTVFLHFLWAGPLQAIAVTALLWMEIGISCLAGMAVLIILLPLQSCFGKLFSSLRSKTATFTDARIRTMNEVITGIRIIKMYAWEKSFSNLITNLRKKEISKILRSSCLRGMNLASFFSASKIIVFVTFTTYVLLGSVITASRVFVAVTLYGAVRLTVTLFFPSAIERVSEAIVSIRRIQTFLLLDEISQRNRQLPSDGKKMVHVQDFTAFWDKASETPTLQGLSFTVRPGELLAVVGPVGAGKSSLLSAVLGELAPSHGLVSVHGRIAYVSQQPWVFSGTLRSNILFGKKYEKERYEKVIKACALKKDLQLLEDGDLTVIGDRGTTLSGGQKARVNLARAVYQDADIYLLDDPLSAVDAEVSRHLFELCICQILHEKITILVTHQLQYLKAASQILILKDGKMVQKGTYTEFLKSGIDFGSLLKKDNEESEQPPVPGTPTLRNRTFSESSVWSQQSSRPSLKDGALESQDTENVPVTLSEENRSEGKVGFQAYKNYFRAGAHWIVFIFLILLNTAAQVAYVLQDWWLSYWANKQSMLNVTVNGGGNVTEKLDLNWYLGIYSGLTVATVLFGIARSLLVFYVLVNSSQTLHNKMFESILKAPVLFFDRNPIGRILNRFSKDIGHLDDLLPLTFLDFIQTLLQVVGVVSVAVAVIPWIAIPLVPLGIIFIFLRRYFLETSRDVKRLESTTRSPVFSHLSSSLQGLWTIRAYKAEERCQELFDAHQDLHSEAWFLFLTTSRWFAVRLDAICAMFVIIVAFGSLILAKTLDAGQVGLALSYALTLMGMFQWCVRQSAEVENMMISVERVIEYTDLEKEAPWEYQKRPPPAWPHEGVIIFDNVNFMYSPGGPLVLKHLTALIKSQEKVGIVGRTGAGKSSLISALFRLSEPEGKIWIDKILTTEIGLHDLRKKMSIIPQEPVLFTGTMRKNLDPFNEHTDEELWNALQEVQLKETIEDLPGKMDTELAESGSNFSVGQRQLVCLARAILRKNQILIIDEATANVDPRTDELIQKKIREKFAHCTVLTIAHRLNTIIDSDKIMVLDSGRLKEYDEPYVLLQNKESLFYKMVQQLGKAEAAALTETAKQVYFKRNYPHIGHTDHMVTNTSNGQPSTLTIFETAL
Protocol: (§1) Binding titration of recombinant antibodies to ABCC4 transfectants was performed by serial dilution of antibodies from about 666 nM. Diluted antibody in flow cytometry buffer was incubated with cells on ice for 30 min. After 2 washes with flow cytometry buffer, bound antibody was detected with PE-labeled F(ab′)2 fragment goat anti-human IgG (Jackson ImmunoResearch) diluted 1:200 in flow cytometry buffer and incubated with cells for 20 min on ice. After 2 washes with flow cytometry buffer fluorescence was measured on an Attune N×T flow cytometer. Data were analyzed with GraphPad Prism 8.0 software to determine EC50's.
(§2) Human embryonic kidney HEK 293T cells and murine C6 (ATCC CCL-107) were transfected with human or cynomolgus ABCC4 cDNA with C-terminal fused FLAG tag in a pMONO-hygro vector with Lipofectamine 3000 (Invitrogen #L3000001). The cells were treated with 0.2 mg/ml and 0.5 mg/ml hygromycin respectively for about 2 weeks while cultivated in DMEM and 10% FBS with 0.2 mg/ml hygromycin and 0.5 mg/ml hygromycin, respectively. The cells were washed with PBS, and stained with […] of anti-FLAG-PE after fixing and permeablization. Clones expressing ABCC4 were single-cell sorted into 200 μl DMEM with 10% FBS using a BD Aria FACS machine and cultivated in 96 well plates using standard techniques in an incubator at 37° C. and 5% CO 2. Two weeks later clones expressing high levels of ABCC4 were screened and amplified.
(§3) Antibody binding to cells was evaluated by flow cytometry. Murine C6 cells stably transfected to express human or cynomolgus ABCC4 were washed once in flow cytometry buffer (PBS+2% FBS+0.02% sodium azide), resuspended at 2×10^6 cells/mL in flow cytometry buffer, and dispensed into 96-well microtiter plates at 0.1 mL/well. Recombinant antibodies were added to cells at 5 ug/mL for initial binding confirmation, or serially diluted from 100 ug/mL in flow cytometry buffer. After incubating cells on ice for 30 min, cells were washed twice with flow cytometry buffer. Bound antibody was detected with PE-labeled F(ab′)2 fragment goat anti-human IgG (Jackson ImmunoResearch) and evaluated on an Attune N×T flow cytometer. EC50 is calculated to be the concentration of antibody that gives half maximal response.
(§4) In a different experiment, using a different C6.cC4 cell line, detecting the binding of anti-ABCC4 antibodies to C6 cells stably transfected to express human ABCC4 measured by FACS and to C6 cells stably transfected to express cynomolgus ABCC4 measured by FACS, the results set forth in Table 4 were obtained. Negative (−)=Rmax (MFI) below background level. Positive (+)=MFI>3× background level.

Molecule | Human ABCC4 binding
B1 | + (Positive (+)=MFI>3× background level)
B2 | + (Positive (+)=MFI>3× background level)
B3 | + (Positive (+)=MFI>3× background level)
B4 | + (Positive (+)=MFI>3× background level)
B5 | + (Positive (+)=MFI>3× background level)
B6 | + (Positive (+)=MFI>3× background level)
B7 | + (Positive (+)=MFI>3× background level)

same assay, conditions: Table 4 study, stated in words

Molecule | binding to human ABCC4 expressed on cell surface
B1 | bind to both human and cynomolgus ABCC4
B3 | bind to both human and cynomolgus ABCC4
B4 | bind to both human and cynomolgus ABCC4
B5 | bind to both human and cynomolgus ABCC4
B6 | bind to both human and cynomolgus ABCC4
B7 | bind to both human and cynomolgus ABCC4

test system: cynomolgus ABCC4; experiment: Flow cytometry (FACS) binding to C6 cells stably transfected to express cynomolgus ABCC4 (different experiment, different C6.cC4 cell line, Table 4); set-up: key to Cynomolgus ABCC4 binding: Negative (−)=Rmax (MFI) below background level; Positive (+)=MFI>3× background level; conditions: Table 4 study, stated in words
Protocol: as §1, §2, §3, §4

Molecule | binding to cynomolgus ABCC4 expressed on cell surface
B1 | bind to both human and cynomolgus ABCC4
B3 | bind to both human and cynomolgus ABCC4
B4 | bind to both human and cynomolgus ABCC4
B5 | bind to both human and cynomolgus ABCC4
B6 | bind to both human and cynomolgus ABCC4
B7 | bind to both human and cynomolgus ABCC4

same assay, conditions: different C6.cC4 cell line, C6 cells stably transfected to express cynomolgus ABCC4, FACS; Table 4

Molecule | Cynomolgus ABCC4 binding
B1 | + (Positive (+)=MFI>3× background level)
B2 | −
B3 | + (Positive (+)=MFI>3× background level)
B4 | + (Positive (+)=MFI>3× background level)
B5 | + (Positive (+)=MFI>3× background level)
B6 | + (Positive (+)=MFI>3× background level)
B7 | + (Positive (+)=MFI>3× background level)
